# Measured values reported in article PMC9884297, “Iron-sulfur clusters are involved in post-translational arginylation” (Nature Communications, 2023).
# Target: the molecule itself
# Assay: SEC; 120 mL gel filtration column, 25 mmol/L Tris pH 7.5, 100 mmol/L NaCl, 1 mmol/L TCEP, 0.35 mol/L glycerol; apparent oligomeric state
protein,measurement,value
"Arg tRNA synthetase from E. coli (strain K12) (enzyme, UniProt P11875 1-577, looked up, Arg tRNA synthetase, E. coli strain K12, UniProt P11875; A TEV-protease cleavage site (ENLYFQS) lies between the protein and the C-terminal (His)6 tag (pET-21a(+), NdeI/XhoI); also called EcArgRS; ArgRS) MNIQALLSEKVRQAMIAAGAPADCEPQVRQSAKVQFGDYQANGMMAVAKKLGMAPRQLAEQVLTHLDLNGIASKVEIAGPGFINIFLDPAFLAEHVQQALASDRLGVATPEKQTIVVDYSAPNVAKEMHVGHLRSTIIGDAAVRTLEFLGHKVIRANHVGDWGTQFGMLIAWLEKQQQENAGEMELADLEGFYRDAKKHYDEDEEFAERARNYVVKLQSGDEYFREMWRKLVDITMTQNQITYDRLNVTLTRDDVMGESLYNPMLPGIVADLKAKGLAVESEGATVVFLDEFKNKEGEPMGVIIQKKDGGYLYTTTDIACAKYRYETLHADRVLYYIDSRQHQHLMQAWAIVRKAGYVPESVPLEHHMFGMMLGKDGKPFKTRAGGTVKLADLLDEALERARRLVAEKNPDMPADELEKLANAVGIGAVKYADLSKNRTTDYIFDWDNMLAFEGNTAPYMQYAYTRVLSVFRKAEIDEEQLAAAPVIIREDREAQLAARLLQFEETLTVVAREGTPHVMCAYLYDLAGLFSGFYEHCPILSAENEEVRNSRLKLAQLTAKTLKLGLDTLGIETVERM",stoichiometry N,6
